{"source": "patent US20170095421A1", "about": "“SYNTHETIC PLATELETS” (Maria I. C. Gyongyossy-Issa, priority 2006, published 2017)", "key": {"purified GPIb": {"molecular_target": "purified GPIb (Homo sapiens, UniProt P07359)", "test": "Overlapping vWf L-peptides on cellulose membrane probed by purified GPIb", "assay_type": "binding", "settings": "detected by anti-GPIb coupled to HRP", "procedure": "The vWf amino acid sequence was used to generate 10-mer L-amino acid overlapping peptides, shifted by two (2), according to the following pattern:\nThese peptides were synthesized and remained attached on the cellulose membrane. The membranes were probed by purified GPIb which was detected by anti-GPIb coupled to horseradish peroxidase (HRP). A number of positive spots were found whose sequences were derived from their positions on the membrane.\nThe sequences were analyzed in silico by (a) finding their positions in a 3D model of the parent protein (see FIG. 17) and then (b) relating that position to the potential vWf-GPIb interactive site."}, "purified vWf": {"molecular_target": "T1, purified vWf (Homo sapiens, UniProt P04275)", "T1 construct": "gift of Dr. F. A. Ofosu, McMaster University", "test": "Random 15-mer D-peptide array probed with purified vWf", "assay_type": "binding", "settings": "peptide on cellulose membrane, detection with anti-human vWf IgG-HRP", "source_text": "Random D-amino acid peptides (15 mer) were synthesized and probed with vWf to detect random sequences capable of binding vWf.\nRandom peptide arrays of 1120 peptides made of D-amino acids were synthesized on a cellulose membrane using an AutoSpot ASP 222 peptide synthesizer (ABiMED, Langenfeld, Germany). The resulting replicate libraries of 15-mer sequences were probed for vWf binding function by exposing the membranes to purified vWf (a gift of Dr. F. A. Ofosu, McMaster University, Hamilton ON, Canada) and blocking with milk, then identifying positive spots with a polyclonal goat anti-human vWf IgG coupled to horseradish peroxidase (Cedarlane, Canada). Immunochemical detection was done using the chemiluminescent substrates from the Amersham Pharmacia ECL kit; and the resulting spots were recorded on photographic film. Negative controls consisted of probing the membranes with the antibodies only, but without prior exposure of the membrane to purified vWf.\nPeptides on random 15-mer peptide arrays that were built of D-amino acids were selected by their binding of vWf. Four sequences were identified: D-pep1-VSRQNGKQYWAIKEG (SEQ ID NO:1); D-pep2-WQNEGTHVLSRCYEC (SEQ ID NO:2); D-pep3-RSARMQVCWNAFKNR (SEQ ID NO:3); and D-pep4-DSCPRDWDNNFLFFE (SEQ ID NO:4). […] The identification of each vWf-peptide binding interface constitutes the results that follow.\nSource—a random d-peptide array was probed with vWf and developed with […]. “Forward” D-amino acid peptides were tested, although L-amino acid versions of the peptides as well as the reverse (retro) of both L- and D-sequences will be also encompassed within the scope of these receptor molecules."}, "vWf": {"molecular_target": "T2, vWf (Homo sapiens, UniProt P04275)", "T2 construct": "mixed with 5 μL human cryoprecipitate diluted 1/100 in Hepes Buffered Saline; from tissue; host or cells: human plasma cryoprecipitate", "test": "Capture of vWf from plasma cryoglobulin fraction", "assay_type": "binding", "settings": "human cryoprecipitate 1/100, 1 hour at 37° C., anti-vWf-FITC", "procedure": "Aliquots of 30 μL of HL or D-Pep3-HL liposomes were mixed with 5 μL human cryoprecipitate diluted 1/100 in Hepes Buffered Saline, (10 mM Hepes, 154 mM NaCl, pH 7.4.) The samples were diluted in buffer to achieve final lipid concentrations of 0.1, 0.25, 0.5, 0.75 and 1 mM, and incubated for 1 hour at 37° C. Anti-vWf-FITC antibodies were added (final dilution 1/128) and incubated for 40 minutes at RT. Samples were diluted with 350 μl of formal-saline and analyzed by flow cytometry."}, "[1]": {"test": "Stability of the covalent linkage of peptide to hydrogel liposomes (Trp fluorescence)", "assay_type": "physicochemical", "settings": "hypothermic liquid storage, 4° C., under nitrogen, in the dark", "procedure": "In brief: fluorescence emission at 348 nm (excitation 280 nm) of the single tryptophan of peptide D-Pep3 was used to analyze the stability of the peptide on the liposomes' surface. Fluorescence emission standard curves of trp-associated fluorescence were prepared using a range of concentrations from 1 μM to 20 μM free peptide D-Pep3 in the presence of 1 mM PEG2000 or HL liposomes (FIG. 34).\nHL and PEG2000 liposomes were reacted with D-Pep3 peptide (as described according to Scheme 1) then washed and adjusted to a concentration of 1 mM lipid. The fluorescence emission was measured. The samples were stored under nitrogen, in the dark, at 4° C. for one month. The liposomes were again washed, resuspended to the same lipid concentration and the fluorescence emission was measured as before (FIG. 35). The attachment was stable for >1 months in hypothermic liquid storage."}, "platelets": {"test_system": "platelets", "test": "P-HL interaction with platelets in plasma (flow cytometry, co-aggregates)", "assay_type": "cell-based", "settings": "0.75 mM lipid, washed platelets, one hour at room temperature", "procedure": "Red anti-Cd42-PE antibodies (7 μL) to detect platelets and 5 μL green anti-vWf-FITC antibodies at a 1/160 dilution were added to the tubes and incubated one more time for 30 min. The samples were diluted to 1 mL with formolsaline solution and analysed by flow cytometry. Singlet platelets (platelet gate), singlet liposomes and co-aggregates (P1 gate) were scored.\nThe post-stained aggregates were positive for CD42 (GPIb) and vWf. All the relevant controls were done, and the critical double stained examples (with anti-CD42-PE and anti-vWf-FITC) were as follows:\nFIG. 37A: platelets alone, double stained with anti-CD42-PE and anti-vWF-FITC FIG. 37B: HL (control liposomes), double stained FIG. 37C: P-HL (D3-peptide hydrogel liposomes), double stained FIG. 37D: HL+platelets, (double stained) FIG. 37E: P-HL+platelets, (double stained)"}}, "note": "Where no end group is shown, it is not given here. [ ]: non-standard residue; d: D form."}
{"substance": "SHAYIGLKDR [L-brown]", "values": [{"measurement": "binding of GPIb (positive spots)", "setting": "purified GPIb", "value": "+ve"}]}
{"substance": "DSCPRDWDNNFLFFE (not fully specified) [D-pep4]", "values": [{"measurement": "binding of vWf", "setting": "purified vWf", "value": "binding to vWf"}]}
{"substance": "WQNEGTHVLSRCYEC (not fully specified; cysteine pairing not given here) [D-pep2]", "values": [{"measurement": "binding of vWf", "setting": "purified vWf", "value": "binding to vWf"}]}
{"substance": "RSARMQVCWNAFKNR (not fully specified) [D-pep3]", "values": [{"measurement": "binding of vWf", "setting": "purified vWf", "value": "binding to vWf"}]}
{"substance": "EVLKYTLFQI [L-black]", "values": [{"measurement": "binding of GPIb (positive spots)", "setting": "purified GPIb", "value": "+ve"}]}
{"substance": "D-Pep3-HL: D-Pep3 peptide covalently attached by Michael addition to hydrogel-liposomes ([dR][dS][dA][dR][dM][dQ][dV][dC][dW][dN][dA][dF][dK][dN][dR]; also: covalently attached to PEG hydrogel-coated liposome by Michael addition (Cys thiol or amines))", "values": [{"measurement": "binding (capture) of vWf", "setting": "vWf", "value": "able to bind their specific ligand"}, {"measurement": "stability of the peptide attachment", "setting": "[1]", "value": "> 1", "unit": "months"}, {"measurement": "aggregate formation with platelets", "setting": "platelets", "value": "form aggregates"}]}
{"substance": "VSRQNGKQYWAIKEG (not fully specified) [D-pep1]", "values": [{"measurement": "binding of vWf", "setting": "purified vWf", "value": "binding to vWf"}]}
